Source: article PMC7311561

Columns and labels:
[1] = target: cathepsin B from human (human)
[2] = target: cathepsin L from human (human)
[3] = target: papain from Carica papaya (Carica papaya) (UniProt P00784)
Sequence of papain from Carica papaya (Carica papaya) (P00784 134-345): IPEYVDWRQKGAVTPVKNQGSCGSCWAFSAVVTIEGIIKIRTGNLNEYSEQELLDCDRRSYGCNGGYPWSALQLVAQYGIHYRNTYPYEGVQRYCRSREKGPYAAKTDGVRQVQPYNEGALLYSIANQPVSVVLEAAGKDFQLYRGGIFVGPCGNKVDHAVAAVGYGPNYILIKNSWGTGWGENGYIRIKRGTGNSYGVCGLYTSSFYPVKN

For “TK-cystatin (secretory cystatin from Thelohanellus kitauei) (natural protein)”, the IC50 of inhibition of cathepsin B activity (0.026 μmol/L cathepsin B, fluorogenic substrate Z-Arg-Arg-AMC, pH 5.5, increasing TK-cystatin) [1] was 2.1 μmol/L, the IC50 of inhibition of cathepsin L activity (0.026 μmol/L cathepsin L, fluorogenic substrate Z-Phe-Arg-AMC, pH 5.5, increasing TK-cystatin) [2] was 0.175 μmol/L and the IC50 of inhibition of papain activity (0.15 μmol/L papain, fluorogenic substrate Z-Phe-Arg-AMC, pH 5.5, increasing TK-cystatin) [3] was 0.8 μmol/L.
